In patent publication US20260167959A1, “APTAZYME-BASED REGULATABLE GENE EXPRESSION SYSTEMS” (REJUVENATE BIO INC, priority 2022, published 2026):

B1: RA147 (nucleic acid)
DNA: GCGCGTCCTGGATTCGCGGAAACGCGTACATCCAGCTGACGAGTAGAATACCAGCATCGTCTTGATGCCCTTGGAAGTCTCCCAAATAGGACGAAACGCGC
modifications: expressed or natural sequence
B2: RA156 (nucleic acid)
DNA: GCCGGAATACCAGCATCGTCTTGATGCCCTTGGAAGTCCGGCGCGTCCTGGATTCGCGGAAACGCGTACATCCAGCTGACGAGTCCCAAATAGGACGAAACGCGC
modifications: expressed or natural sequence
B3: RA138 (nucleic acid)
DNA: GCGCGGAATACCAGCATCGTCTTGATGCCCTTGGAAGTCCGCGTCCTGGATTCGCGGAAACGCGTACATCCAGCTGACGAGTCCCAAATAGGACGAAACGCGC
modifications: expressed or natural sequence
B4: RA133 (nucleic acid)
DNA: GCGCGAGAATACCAGCATCGTCTTGATGCCCTTGGAAGTCTCGTCCTGGATTCGCGGAAACGCGTACATCCAGCTGACGAGTCCCAAATAGGACGAAACGCGC
modifications: expressed or natural sequence
B5: RA150 (nucleic acid)
DNA: GCGCGTCCTGGATTCGCGGAAACGCGTACATCCAGCTGACGAGTCCCAAATAGGACGAAAGGAATACCAGCATCGTCTTGATGCCCTTGGAAGTCCCGCGC
modifications: expressed or natural sequence
B6: RA152 (nucleic acid)
DNA: GCGCGTGGAATACCAGCATCGTCTTGATGCCCTTGGAAGTCCCCTGGATTCGCGGAAACGCGTACATCCAGCTGACGAGTCCCAAATAGGACGAAACGCGC
modifications: expressed or natural sequence
B7: RA153 (nucleic acid)
DNA: CGAGAATACCAGCATCGTCTTGATGCCCTTGGAAGTCTCGGCGCGTCCTGGATTCGCGGAAACGCGTACATCCAGCTGACGAGTCCCAAATAGGACGAAACGCGC
modifications: expressed or natural sequence
B8: RA013 (nucleic acid)
DNA: GCGCGTCCTGGATTCGCGGAAACGCGTACATCCAGCTGACGAGTCCCAAATAGGACGAAACGAGAATACCAGCATCGTCTTGATGCCCTTGGAAGTCTCGC
modifications: expressed or natural sequence
B9: RA149 (nucleic acid)
DNA: GCGCGGAGAATACCAGCATCGTCTTGATGCCCTTGGAAGTCTCTCCTGGATTCGCGGAAACGCGTACATCCAGCTGACGAGTCCCAAATAGGACGAAACGCGC
modifications: expressed or natural sequence
B10: RA141 (nucleic acid)
DNA: GCGCGTCCTGGATTCGCGGAAACGCGTACATCCGGAATACCAGCATCGTCTTGATGCCCTTGGAAGTCCGGCCAGCTGACGAGTCCCAAATAGGACGAAACGCGC
modifications: expressed or natural sequence
B11: RA157 (nucleic acid)
DNA: GCGCGTCCTGGATTCGCGGAAACGCGTAAGAATACCAGCATCGTCTTGATGCCCTTGGAAGTCTCATCCAGCTGACGAGTCCCAAATAGGACGAAACGCGC
modifications: expressed or natural sequence
B12: RA137 (nucleic acid)
DNA: GCGCGTCCTGGATTCGCGGAAACGCGTACGAGAATACCAGCATCGTCTTGATGCCCTTGGAAGTCTCATCCAGCTGACGAGTCCCAAATAGGACGAAACGCGC
modifications: expressed or natural sequence
B13: RA131 (nucleic acid)
DNA: GCGCGTCCTAGAATACCAGCATCGTCTTGATGCCCTTGGAAGTCTGGATTCGCGGAAACGCGTACATCCAGCTGACGAGTCCCAAATAGGACGAAACGCGC
modifications: expressed or natural sequence
B14: RA139 (nucleic acid)
DNA: GGAGAATACCAGCATCGTCTTGATGCCCTTGGAAGTCTCCGCGTCCTGGATTCGCGGAAACGCGTACATCCAGCTGACGAGTCCCAAATAGGACGAAACGCGC
modifications: expressed or natural sequence
B15: RA154 (nucleic acid)
DNA: GCGCGTCCTGGATTCGCGGAAACGCGAGAATACCAGCATCGTCTTGATGCCCTTGGAAGTCTCGTACATCCAGCTGACGAGTCCCAAATAGGACGAAACGCGC
modifications: expressed or natural sequence
B16: RA142 (nucleic acid)
DNA: GCGCGTCCTGGATTCGCGGAAACGCGTACGGAATACCAGCATCGTCTTGATGCCCTTGGAAGTCCATCCAGCTGACGAGTCCCAAATAGGACGAAACGCGC
modifications: expressed or natural sequence
B17: RA151 (nucleic acid)
DNA: GCGCGTCCTGGATTCGCGGAAACGCGTACCGGAATACCAGCATCGTCTTGATGCCCTTGGAAGTCCGGCATCCAGCTGACGAGTCCCAAATAGGACGAAACGCGC
modifications: expressed or natural sequence
B18: RA146 (nucleic acid)
DNA: GCGCGTCCTGGATTCGCGGAAACGCGTACATCCAGCTGACGAGTCCCAAATAGGAATACCAGCATCGTCTTGATGCCCTTGGAAGTCCGGACGAAACGCGC
modifications: expressed or natural sequence
B19: RA135 (nucleic acid)
DNA: GCGCGTCCTGGATTCGCGGAAACGAGTGATACCAGCATCGTCTTGATGCCCTTGGCAGCACTCGTACATCCAGCTGACGAGTCCCAAATAGGACGAAACGCGC
modifications: expressed or natural sequence
B20: RA145 (nucleic acid)
DNA: GCGCGGAATACCAGCATCGTCTTGATGCCCTTGGAAGTCCGTCCTGGATTCGCGGAAACGCGTACATCCAGCTGACGAGTCCCAAATAGGACGAAACGCGC
modifications: expressed or natural sequence
B21: RA134 (nucleic acid)
DNA: GCGCGTCCTGGATTCGCGGAAACGCGTACATCCAGCTGACGAGTCGGAATACCAGCATCGTCTTGATGCCCTTGGAAGTCCGCCCAAATAGGACGAAACGCGC
modifications: expressed or natural sequence
B22: RA143 (nucleic acid)
DNA: GCGCGTCCTGGATTCGCGGAAACGCGTACATCCAGCTGACGAGTGATACCAGCATCGTCTTGATGCCCTTGGCAGCACTAGTCCCAAATAGGACGAAACGCGC
modifications: expressed or natural sequence
B23: RA014 (nucleic acid)
DNA: GCGCGTCCTGGATTCGCGGAAACGCGTACATCCAGCTGACGAGTCCCAAATAGGACGAAACGGAATACCAGCATCGTCTTGATGCCCTTGGAAGTCCGCGC
modifications: expressed or natural sequence
B24: RA148 (nucleic acid)
DNA: GCGCGTCCTGGATTCGCGGAAACGCGTACATCCAGCTGACGAGAGAATACCAGCATCGTCTTGATGCCCTTGGAAGTCTTCCCAAATAGGACGAAACGCGC
modifications: expressed or natural sequence
B25: RA155 (nucleic acid)
DNA: GCGCGTCCTGGATTCGCGGAAACGCGTACATCCAGCTGACGAGTCCCAAATAGGACGAGAATACCAGCATCGTCTTGATGCCCTTGGAAGTCTCGCGAAACGCGC
modifications: expressed or natural sequence
B26: RA144 (nucleic acid)
DNA: GCGCGCGAGAATACCAGCATCGTCTTGATGCCCTTGGAAGTCTCGTCCTGGATTCGCGGAAACGCGTACATCCAGCTGACGAGTCCCAAATAGGACGAAACGCGC
modifications: expressed or natural sequence
B27: RA132 (nucleic acid)
DNA: GCGCGTCCTGGATTCGCGGAATACCAGCATCGTCTTGATGCCCTTGGAAGTCCGGAAACGCGTACATCCAGCTGACGAGTCCCAAATAGGACGAAACGCGC
modifications: expressed or natural sequence
B28: RA140 (nucleic acid)
DNA: GCGCGTCCTGGATTCGCGGAAACGCGTACATCCAGCTGACGAGTCCGGAATACCAGCATCGTCTTGATGCCCTTGGAAGTCCGGCCCAAATAGGACGAAACGCGC
modifications: expressed or natural sequence
B29: RA136 (nucleic acid)
DNA: GCGCGTCCTGGATTCGCGGAAACGCGTACATCCAGCTGACGAGTCCCAAATAGGACGAAACGGAGAATACCAGCATCGTCTTGATGCCCTTGGAAGTCTCCGC
modifications: expressed or natural sequence

System: Renilla luciferase RNA
Assay: Barcoded aptazyme variant library screen: un-cleaved Renilla luciferase RNA by barcode read counts, HEK293-T cells
Assay type: cell-based
Conditions: un-cleaved Renilla luciferase RNA, HEK293-T cells cultured with 1 mM theophylline (ON) over without theophylline (OFF); barcode read counts, triplicate
Procedure, shortened: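 Barcode sequencing of cDNA versus DNA, normalized per aptazyme, gave the un-cleaved Renilla luciferase RNA fraction and fold-change with versus without theophylline (triplicates). Library: T3H48 ribozyme with one of seven theophylline aptamer variants inserted at each position, placed in the Renilla 3′ UTR of a dual-luciferase vector.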

Row | Molecule | Fold change in RNA expression between the ON state and the OFF state [fold]
1 | B1 | 1.4
2 | B2 | 1.3
3 | B3 | 1.4
4 | B4 | 1.4
5 | B5 | 1.4
6 | B6 | 1.4
7 | B7 | 1.3
8 | B8 | 3.3
9 | B9 | 1.4
10 | B10 | 1.4
11 | B11 | 1.3
12 | B12 | 1.4
13 | B13 | 1.4
14 | B14 | 1.4
15 | B15 | 1.3
16 | B16 | 1.4
17 | B17 | 1.4
18 | B18 | 1.4
19 | B19 | 1.4
20 | B20 | 1.4
21 | B21 | 1.4
22 | B22 | 1.4
23 | B23 | 3.1
24 | B24 | 1.4
25 | B25 | 1.3
26 | B26 | 1.4
27 | B27 | 1.4
28 | B28 | 1.4
29 | B29 | 1.4
